Target: RGA5_S (RGA5 982-1116), small C-terminal fragment of RGA5 carrying the HMA domain (rice) (UniProt F7J0N2)
Experiment: SEC

Chain of UniProt F7J0N2 (F7J0N2 982-1116): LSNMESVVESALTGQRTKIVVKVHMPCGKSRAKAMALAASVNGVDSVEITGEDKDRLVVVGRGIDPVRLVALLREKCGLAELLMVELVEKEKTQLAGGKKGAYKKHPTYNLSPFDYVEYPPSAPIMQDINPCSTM

dSP-AVR1-CO39 (AVR1-CO39 with its signal peptide deleted), wild type, recombinant (natural protein)
stoichiometry N: 1

Source: PMC6233088
